# Measurements as given in paper doi:10.1101/2021.03.22.436414 (bioRxiv, 2021).
# B1: Recombinant S. cerevisiae septin octamer capped with Cdc11-SNAP (Cdc11-Cdc12-Cdc3-Cdc10-Cdc10-Cdc3-Cdc12-Cdc11) (complex)
# chain 1: MSGIIDASSALRKRKHLKRGITFTVMIVGQSGSGRSTFINTLCGQQVVDTSTTILLPTDTSTEIDLQLREETVELEDDEGVKIQLNIIDTPGFGDSLDNSPSFEIISDYIRHQYDEILLEESRVRRNPRFKDGRVHCCLYLINPTGHGLKEIDVEFIRQLGSLVNIIPVISKSDSLTRDELKLNKKLIMEDIDRWNLPIYNFPFDEDEISDEDYETNMYLRTLLPFAIIGSNEVYEMGGDVGTIRGRKYPWGILDVEDSSISDFVILRNALLISHLHDLKNYTHEILYERYRTEALSGESVAAESIRPNLTKLNGSSSSSTTTRRNTNPFKQSNNINNDVLNPASDMHGQSTGENNETYMTREEQIRLEEERLKAFEERVQQELLLKRQELLQREKELREIEARLEKEAKIKQEE
# chain 2: MSAATATAAPVPPPVGISNLPNQRYKIVNEEGGTFTVMLCGESGLGKTTFINTLFQTVLKRADGQQHRQEPIRKTVEIDITRALLEEKHFELRVNVIDTPGFGDNVNNNKAWQPLVDFIDDQHDSYMRQEQQPYRTKKFDLRVHAVLYFIRPTGHGLKPIDIETMKRLSTRANLIPVIAKADTLTAQELQQFKSRIRQVIEAQEIRIFTPPLDADSKEDAKSGSNPDSAAVEHARQLIEAMPFAIVGSEKKFDNGQGTQVVARKYPWGLVEIENDSHCDFRKLRALLLRTYLLDLISTTQEMHYETYRRLRLEGHENTGEGNEDFTLPAIAPARKLSHNPRYKEEENALKKYFTDQVKAEEQRFRQWEQNIVNERIRLNGDLEEIQGKVKKLEEQVKSLQVKKSHLK
# chain 3: MSLKEEQVSIKQDPEQEERQHDQFNDVQIKQESQDHDGVDSQYTNGTQNDDSERFEAAESDVKVEPGLGMGITSSQSEKGQVLPDQPEIKFIRRQINGYVGFANLPKQWHRRSIKNGFSFNLLCVGPDGIGKTTLMKTLFNNDDIEANLVKDYEEELANDQEEEEGQGEGHENQSQEQRHKVKIKSYESVIEENGVKLNLNVIDTEGFGDFLNNDQKSWDPIIKEIDSRFDQYLDAENKINRHSINDKRIHACLYFIEPTGHYLKPLDLKFMQSVYEKCNLIPVIAKSDILTDEEILSFKKTIMNQLIQSNIELFKPPIYSNDDAENSHLSERLFSSLPYAVIGSNDIVENYSGNQVRGRSYPWGVIEVDNDNHSDFNLLKNLLIKQFMEELKERTSKILYENYRSSKLAKLGIKQDNSVFKEFDPISKQQEEKTLHEAKLAKLEIEMKTVFQQKVSEKEKKLQKSETELFARHKEMKEKLTKQLKALEDKKKQLELSINSASPNVNHSPVPTKKKGFLR
# chain 4: MDPLSSVQPASYVGFDTITNQIEHRLLKKGFQFNIMVVGQSGLGKSTLINTLFASHLIDSATGDDISALPVTKTTEMKISTHTLVEDRVRLNINVIDTPGFGDFIDNSKAWEPIVKYIKEQHSQYLRKELTAQRERFITDTRVHAILYFLQPNGKELSRLDVEALKRLTEIANVIPVIGKSDTLTLDERTEFRELIQNEFEKYNFKIYPYDSEELTDEELELNRSVRSIIPFAVVGSENEIEINGETFRGRKTRWSAINVEDINQCDFVYLREFLIRTHLQDLIETTSYIHYEGFRARQLIALKENANSRSSAHMSSNAIQR
# modifications: Alexafluor488 dye on the SNAP tag
# Molecular target: the molecule itself
# Experiment: TIRF microscopy of filament lengths at steady state
protein,measurement,value
B1,Kd,84.5 ± 8.5 nM
